Laboratory results: PMC7587433

Target: rFN12-14 (recombinant fibronectin type III repeats 12 to 14)
Assay: SPR; Biacore T200, C1 sensor chip; rFN12-14 immobilised (~870 RU); rF-, rFG-repeat or multiple repeats in HBS-EP injected at 40 μl/min; double referencing

Substance	Kd
r2F-repeats (recombinant Embp fragment, aa 2569 to 2908) (domain or fragment)	10 µM
r2FG-repeats (recombinant Embp fragment, aa 6777 to 7028) (domain or fragment)	0.5 µM
r4F-repeats (recombinant Embp fragment, aa 2569 to 3248) (domain or fragment)	20 µM
rF-repeat (recombinant first F-repeat of Embp, aa 2569 to 2738) (domain or fragment)	29 µM
rFG-repeat (recombinant 19th FG-repeat of Embp, aa 6777 to 6902) (domain or fragment)	0.13 µM

Target: fibronectin (full-length human Fn, Sigma-Aldrich) (human) (UniProt P02751)
Assay: SPR; Biacore T200, C1 sensor chip, 25°C, HBS-EP (10 mM HEPES pH 7.4, 150 mM NaCl, 3 mM EDTA, 0.005% Surfactant P20); Fn immobilised by amine coupling (~1,000 RU); rF- and rFG-repeats injected at 40 μl/min

Substance	Kd
rF-repeat (recombinant first F-repeat of Embp, aa 2569 to 2738)	4 µM
rFG-repeat (recombinant 19th FG-repeat of Embp, aa 6777 to 6902) (domain or fragment)	0.0016 µM
